Experimental data from IntAct's records for PubMed 10633111.

B1: Protein virB8 (Agrobacterium tumefaciens (strain C58 / ATCC 33970)), P17798 (parent)
chain: MKGSEYALLVARETLAEHYKEVEAFQTARAKSARRLSKVIAAVATIAVLGNVAQAFTIATMVPLIRLVPVYLWIRPDGTVDSEVSVSRLPATQEEAVVNASLWEYVRLRESYDADTAQYAYDLVSNFSAPMVRQNYQQFFNYPNPTSPQVILGKHGRLEVEHIASNDVTPGVQQIRYKRTLIVDGKMPMASTWTATVRYEKVTSLPGRLRLTNPGGLVVTSYQTSEDTVSNAGHSEP
partner: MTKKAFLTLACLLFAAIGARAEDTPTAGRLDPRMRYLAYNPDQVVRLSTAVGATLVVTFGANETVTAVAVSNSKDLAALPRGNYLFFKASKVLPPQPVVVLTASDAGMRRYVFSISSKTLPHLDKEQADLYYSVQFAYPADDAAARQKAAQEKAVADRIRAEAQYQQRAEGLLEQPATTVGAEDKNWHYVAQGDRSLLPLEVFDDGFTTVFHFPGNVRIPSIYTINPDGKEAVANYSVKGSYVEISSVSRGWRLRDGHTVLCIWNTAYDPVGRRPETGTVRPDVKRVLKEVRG
B2: Protein virB8 (Agrobacterium tumefaciens (strain C58 / ATCC 33970)), P17798 (parent)
chain: B1 chain
partner: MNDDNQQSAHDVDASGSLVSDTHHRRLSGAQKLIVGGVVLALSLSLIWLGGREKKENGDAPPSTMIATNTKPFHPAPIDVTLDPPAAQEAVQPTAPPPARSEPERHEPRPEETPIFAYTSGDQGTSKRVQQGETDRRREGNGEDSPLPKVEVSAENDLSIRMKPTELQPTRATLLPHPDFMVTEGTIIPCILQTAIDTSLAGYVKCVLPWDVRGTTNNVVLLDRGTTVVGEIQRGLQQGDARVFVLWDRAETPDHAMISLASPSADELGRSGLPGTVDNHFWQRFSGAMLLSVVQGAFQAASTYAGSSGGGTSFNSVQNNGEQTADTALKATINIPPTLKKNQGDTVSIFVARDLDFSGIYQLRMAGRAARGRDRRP

Variants of: B1
Conditions: with virb9_agrfc virB9, P17799

Variant | effect of a mutation on the interaction
S87L | disrupting interaction

Variants of: B2
Conditions: with virba_agrfc virB10, P17800

Variant | effect of a mutation on the interaction
S87L | decreasing interaction
